Data as given in publication PMC8924211 (Nature Communications, 2022).

Legend:
Assay in all cases: AlphaScreen or HTRF; saturation binding: HEK293 cells transfected with SNAP-GAL1R or SNAP-GAL2R (WT or mutants), labelled with SNAP-Lumi4-Tb; increasing concentrations of galanin-A2 with or without 100 uM unlabeled galanin, 1 h at room temperature
[1] = biological target: SNAP-GAL2R F264^ECL3A (human) (UniProt O43603)
[2] = biological target: SNAP-GAL2R Q82^2.61A (human) (UniProt O43603)
[3] = biological target: SNAP-GAL2R Y271^7.32A (human) (UniProt O43603)
SNAP-GAL2R Y271^7.32A (human), sequence (O43603 whole entry Y271A): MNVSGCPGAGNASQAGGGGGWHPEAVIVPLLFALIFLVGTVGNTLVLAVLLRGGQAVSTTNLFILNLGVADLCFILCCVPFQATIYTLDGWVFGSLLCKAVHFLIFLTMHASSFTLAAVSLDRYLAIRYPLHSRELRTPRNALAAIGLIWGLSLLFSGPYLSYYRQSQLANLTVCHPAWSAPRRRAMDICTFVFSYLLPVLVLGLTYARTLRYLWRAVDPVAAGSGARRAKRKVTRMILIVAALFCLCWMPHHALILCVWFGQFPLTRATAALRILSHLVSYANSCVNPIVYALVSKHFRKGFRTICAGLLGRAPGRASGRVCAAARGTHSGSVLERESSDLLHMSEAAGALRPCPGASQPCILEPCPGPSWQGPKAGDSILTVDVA

Measured: Kd

SNAP-GAL2R F264^ECL3A (human), sequence (O43603 whole entry F264A): as the sequence (O43603 whole entry Y271A) above, with F264A, A271Y counted along it
SNAP-GAL2R Q82^2.61A (human), sequence (O43603 whole entry Q82A): as the sequence (O43603 whole entry Y271A) above, with Q82A, A271Y counted along it

B1: galanin-A2 (full-length galanin labeled with the dye A2 on an additional cysteine at the C-terminal end) (peptide)
peptide: GWTLNSAGYLLGPHAVGNHRSFSDKNGLTSC
modifications: dye A2 on the additional C-terminal cysteine
notes: numbers count on: the mature protein; additional cysteine at the C-terminal end of the peptide, carries the dye A2; source: synthetic peptide (synthesized by Vazyme, China)
> 500 nM: [1] | [2] | [3]
